Where “and” joins values, the source holds several entries; their conditions need not be identical. Equal values may be shown once.
Biological target: the molecule itself
Test: crystal structure

B1: N-terminal lipid-binding domain of Mycobacterium tuberculosis Wag31 (residues 2-60) (domain or fragment)
chain: PLTPADVHNVAFSKPPIGKRGYNEDEVDAFLDLVENELTRLIEENSDLRQRINELDQEL
notes: Assembly states reported: parallel coiled-coil dimer (asymmetric unit), tetramer ('dimer-of-dimers'); also called N-Wag31; N-terminal Wag31
- stoichiometry N: 2 and 4

Source: paper PMC7340271 (IUCrJ, 2020)
